Measured values: article PMC3962490, “The Yeast Ess1 Prolyl Isomerase Controls Swi6 and Whi5 Nuclear Localization” (G3: Genes|Genomes|Genetics, 2014)

Target: all the peptides, including the phosphorylated CTD peptide
Assay: BLI; Octet RED, 24°; N-terminally biotinylated peptides immobilised on streptavidin biosensors; Ess1 in solution (3, 10, 30 μM); 20 mM Tris-HCl pH 8.0, 1 mg/mL BSA; no-peptide sensor subtracted; apparent dissociation constants (Kapp) from kinetic and equilibrium data, considering only the predominant faster-dissociating signal; for unphosphorylated peptides Kapp estimated from the signal at 30 μM Ess1

B1: Recombinant S. cerevisiae Ess1 protein (enzyme)
chain: MPSDVASRTGLPTPWTVRYSKSKKREYFFNPETKHSQWEEPEGTNKDQLHKHLRDHPVRVRCLHILIKHKDSRRPASHRSENITISKQDATDELKTLITRLDDDSKTNSFEALAKERSDCSSYKRGGDLGWFGRGEMQPSFEDAAFQLKVGEVSDIVESGSGVHVIKRVG
kon: 17500 to 27100 M⁻¹ s⁻¹
